How the values were obtained:
Details in all cases: protein: recombinant; tags: N-terminal His tag removed by TEV
T-STAR KH [1] = target: T1, T-STAR KH (UniProt O75525 50-160); experiment: NMR TOCSY; 100% D2O; chemical exchange, possibly multiple registers; T-STAR KH: 10 mM Tris-HCl pH 7 (also given as pH 6.5, 50 mM NaCl, 30 C); Sam68 KH: 20 mM sodium phosphate pH 7.0, 50 mM NaCl, 20 C; about 0.2 mM protein, protein:RNA 1:0.5 and 1:1
T1 sequence: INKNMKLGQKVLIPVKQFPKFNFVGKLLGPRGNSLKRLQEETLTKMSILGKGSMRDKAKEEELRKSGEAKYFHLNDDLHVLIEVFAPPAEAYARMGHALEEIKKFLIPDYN

Sam68 KH [2] = target: T2, Sam68 KH (UniProt Q07666 150-260); experiment: NMR 15N-1H HSQC CSP; slow exchange; strong affinity; T-STAR KH: 10 mM Tris-HCl pH 7 (also given as pH 6.5, 50 mM NaCl, 30 C); Sam68 KH: 20 mM sodium phosphate pH 7.0, 50 mM NaCl, 20 C; about 0.2 mM protein, protein:RNA 1:0.5 and 1:1
T-STAR KH-QUA2 = target: T3, T-STAR KH-QUA2 (UniProt O75525 50-183); experiment: NMR 15N-1H HSQC CSP; T-STAR KH: 10 mM Tris-HCl pH 7 (also given as pH 6.5, 50 mM NaCl, 30 C); Sam68 KH: 20 mM sodium phosphate pH 7.0, 50 mM NaCl, 20 C; about 0.2 mM protein, protein:RNA 1:0.5 and 1:1
T3 sequence: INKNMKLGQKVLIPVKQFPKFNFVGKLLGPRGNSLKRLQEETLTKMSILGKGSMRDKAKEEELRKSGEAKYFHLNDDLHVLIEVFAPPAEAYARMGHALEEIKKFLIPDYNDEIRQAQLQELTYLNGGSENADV

T-STAR KH [3] = target: T1, T-STAR KH; experiment: NMR 15N-1H HSQC CSP; fast exchange; T-STAR KH: 10 mM Tris-HCl pH 7 (also given as pH 6.5, 50 mM NaCl, 30 C); Sam68 KH: 20 mM sodium phosphate pH 7.0, 50 mM NaCl, 20 C; about 0.2 mM protein, protein:RNA 1:0.5 and 1:1
Sam68 KH [4] = target: T2, Sam68 KH; experiment: NMR 15N-1H HSQC CSP; T-STAR KH: 10 mM Tris-HCl pH 7 (also given as pH 6.5, 50 mM NaCl, 30 C); Sam68 KH: 20 mM sodium phosphate pH 7.0, 50 mM NaCl, 20 C; about 0.2 mM protein, protein:RNA 1:0.5 and 1:1
T-STAR KH [5] = target: T1, T-STAR KH; experiment: NMR 15N-1H HSQC CSP; fast to intermediate exchange; higher affinity than AAAUAA; T-STAR KH: 10 mM Tris-HCl pH 7 (also given as pH 6.5, 50 mM NaCl, 30 C); Sam68 KH: 20 mM sodium phosphate pH 7.0, 50 mM NaCl, 20 C; about 0.2 mM protein, protein:RNA 1:0.5 and 1:1

T2 sequence (Q07666 150-260): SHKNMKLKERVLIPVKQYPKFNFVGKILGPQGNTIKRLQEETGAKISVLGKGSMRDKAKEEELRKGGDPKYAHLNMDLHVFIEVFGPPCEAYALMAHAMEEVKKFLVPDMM

Binder: UAAAAUUUUU (ssRNA)
- binding result (T-STAR KH [1]): binds

Binder: AUUAAA (ssRNA)
- binding result (Sam68 KH [2]): binds

Binder: AAAUAA (ssRNA)
- binding result (T-STAR KH-QUA2): binds
- binding result (T-STAR KH [3]): binds

Binder: UUUUUU (ssRNA) [UUUUUU (polyU 6mer)]
- binding result (Sam68 KH [4]): no binding

Binder: UAAAUAAUU (ssRNA)
- binding result (T-STAR KH [1]): binds

Binder: AAAAAA (ssRNA) [AAAAAA (polyA 6mer)]
- binding result (T-STAR KH [5]): binds
